Source: publication PMC7926950, “Constructing an Efficient Bacillus subtilis Spore Display by Using Cohesin−Dockerin Interactions” (Molecules, 2021)

Substrate: O=[N+]([O-])c1ccccc1O[C@@H]1O[C@H](CO)[C@H](O)[C@H](O)[C@H]1O
Experiment: purified protein
Assay type: biochemical, Geobacillus kaustophilus
Details: free enzyme, not displayed on spores, ONPG 0.83-20 mM, general assay printed as 20 mM potassium phosphate pH 6.0, 75 °C (spore assay)

B1: Bsβ–Gal (Geobacillus kaustophilus) (protein)
chain: MNVLSSICYGGDYNPEQWPEEIWYEDAKLMQKAGVNLVSLGIFSWSKIEPSDGVFDFEWLDKVIDILYDHGVYINLGTATATTPAWFVKKYPDSLPIDESGVILSFGSRQHYCPNHPQLITHIKRLVRAIAERYKNHPALKMWHVNNEYACHVSKCFCENCAVAFRKWLKERYKTIDELNERWGTNFWGQRYNHWDEINPPRKAPTFINPSQELDYYRFMNDSILKLFLTEKEILREVTPDIPVSTNFMGSFKPLNYFQWAQHVDIVTWDSYPDPREGLPIQHAMMNDLMRSLRKGQPFILMEQVTSHVNWRDINVPKPPGVMRLWSYATIARGADGIMFFQWRQSRAGAEKFHGAMVPHFLNENNRIYREVTQLGQELKKLDCLVGSRIKAEVAIIFDWENWWAVELSSKPHNKLRYIPIVEAYYRELYKRNIAVDFVRPSDDLTKYKVVIAPMLYMVKEGEDENLRQFVANGGTLIVSFFSGIVDENDRVHLGGYPGPLRDILGIFVEEFVPYPETKVNKIYSNDGEYDCTTWADIIRLEGAEPLATFKGDWYAGLPAVTRNCYGKGEGIYVGTYPDSNYLGRLLEQVFAKHHINPILEVAENVEVQQRETDEWKYLIIINHNDYEVTLSLPEDKIYQNMIDGKCFRGGELRIQGVDVAVLREHDEAGKV
notes: full-length bgaB in pET-28a (PCR from pJS-cotY-bgaB), expressed in E. coli BL21(DE3), heat treatment and Ni-NTA, free enzyme; printed as tetrameric
Km: 2970 ± 50 µM
